Reference: patent US5633451

Each substance was assayed against Dendroides canadensis thermal hysteresis proteins (purified THPs).

Thermal Hysteresis (°C.) of a 4 mg/ml THP solution [°C.]	Substance
3.13	Gelatin
3.98	Tipula ice-nucleator protein PIN
3.49	Tipula lipoprotein ice-nucleator (LPIN)
